According to the DeepSol protein solubility set:

Assay: soluble on expression in E. coli; label from the status in PepcDB or PDB records

| Sequence | soluble on expression in E. coli |
| --- | --- |
| MGSDKIHHHHHHMNIERADFVDRVKIFVKAGDGGNGCVSFRREKYVPKGGPDGGDGGNGGFVFLRANPSVSTLIEFVNKRKFMAENGKHGMGKKMKGRNGKDLFIDVPVGTVVKDAVTGEVIADLNEPGKIVCVARGGRGGRGNAHFATSIKQAPLIAERGEKGESRWLELELKILADVGLVGYPNVGKSSLISRISNARPKIANYPFTTLIPNLGVVKYDDFSFVVADIPGLIEGASEGVGLGNVFLRHVERCYLIAHVIDVSGYEREDPVRDYFVIREEMKKYSPFLLEKPEIVVANKIDLIGKEELEKILKRLRDATNREVIPVSAVTGEGIDLLVSKLASIVREMKVEKPERKEEKFVKPSPVWRRLPEKFHLEVVKEDEGYWVVEGENLRVWIERFDLNQRDARLMLLQVLEKNGLNNKLKEAGVKEGDVVRIGDFEFEYRE | not soluble |
| MGSDKIHHHHHHMVMYLENPGKLDRKFFTESILRYTGYRRPEDKVPPKNGVDTGIISIGNGKVMAVTTDPFYFDPVFGYEDSAWFAYHILASDITTAGVYPEYMTVDLNLPISISNEEIARMWKTVHEEAYKYKTSIITGHTARYANTGFPMVGGATMFGFTDDDKYVTTAMARPGDIMIMTKTAGIEAASLLTRIFPNHVKKNLGEDKYRYGFELFRKLSTVDEAIQAIEFGTRKAITSMHDATEGGLLGAVYEVAEASGNGVSIDKEAIHVDDYVKEIHSLFGIDPLRSISEGTLLMTIDPEYADEFMKRLTKSGIDSYVIGKMTTKDEGIKFKDGSEPIGEPEKDPFWYAVEKSMKMGLS | not soluble |
| GSHMASMTGGQQMGRGSWKRAFLAFGSNIGDRFKHIQMALQLLSREKTVKLRNISSIFESEPMYFKDQTPFMNGCVEVETLLTPSELLKLCKKIEYEELQRVKHFDNGPRTIDLDIVMFLNSAGEDIIVNEPDLNIPHPRMLERTFVLEPLCELISPVHLHPVTAEPIVDHLKQLYDKQHDEDTLWKLVPLPYRSGVEPRFLKFKTATKLDEFTGETNRITVSPTYIMAIFNATPDSFSDGGEHFADIESQLNDIIKLCKDALYLHESVIIDVGGCSTRPNSIQASEEEEIRRSIPLIKAIRESTELPQDKVILSIDTYRSNVAKEAIKVGVDIINDISGGLFDSNMFAVIAENPEICYILSHTRGDISTMNRLAHYENFALGDSIQQEFVHNTDIQQLDDLKDKTVLIRNVGQEIGERYIKAIDNGVKRWQILIDPGLGFAKTWKQNLQIIRHIPILKNYSFTMNSNNSQVYVNLRNMPVLLGPSRKKFIGHITKDVDAKQRDFATGAVVASCIGFGSDMVRVHDVKNCSKSIKLADAIYKGLE | soluble |
| MDVASALEGNWEFRVDHKNIKIFSSKIRGSQVLGFKGEAVFEASLRKLISLFHDFGNYGKWVHQLSEMEVLHKSDELDYVVRQVLNTPWPIPKREMIVRTALHASEEGALALTMTGIPDYVPLKPDFHRVREARGGWILMPVDGGKVHVTFVMHLDPGSDIPPALSNAALFEVPFYSLLKMRDLAQNPSYKPAWPSVVDNHVTIIEDVPDKHLEHHHHHH | soluble |
| MKGSASTKPGGSPSTSRTAHPARANTSGNASTSGKQPQGPRAPVHAKGKPKRGGAEAEATESDKVAYTVIITNVENDFGKLHRACLPYYCGLRSDYEGTLDVERLLHEGGPQSRRLIGAVRGCSYAVRCRTETRSAEISLYGPANADFAPMQLTKAPRRPSTPAADAKSMAAPTTSSSEKLAQKDTTAPAEDVSEETALANVGAVEQLALRLRRQHYFEEHLPVSVHLPGRKADEVLLRIDKGSASSDADGTNATGVKNEEANGVAEDADADRRGSAATPVTASASREKRQRVVEEDRNADAPSLQRVKAEAPDGDEEGTEEDSATAHERGKTTENDVDRRADNGGRRSRRLTKSKSATIIAQFPRRQKDFVTAVAALSSRVPLQRVRGRLRDLPGFLSCWSLYERHLRVVFRDAESLFKAKQLLDQFELEPGLRVSLIFSDPLSRTNAEYLRAQENESVNE | not soluble |
| MKKVITYGTFDLLHWGHIKLLERAKQLGDYLVVAISTDEFNLQKQKKAYHSYEHRKLILETIRYVDEVIPEKNWEQKKQDIIDHNIDVFVMGDDWEGKFDFLKDQCEVVYLPRTEGISTTKIKEEIAGL | soluble |
| MSFRLRIDDSVTADHVVCWGVTVALLKKSLFGSTPEERKRRVEEKISQAVVELGLEGLSDEFRVSMLSAWVRYYVFRVDAGEKTFVLNVLSPNSPVKSFRDILDPLRGLFEKFRENIAVPVAYTDEFMLQEWINGLPLSELRDGDVMRSDEKSRRIIEESIYLTARLLYRLWKEGFVYSPWEDYEAMYCDGKIVLLDVTRFEKKPSNESFLQHYYGAPFCPPDVLKDPKSPVNRLYFRGTSERDYFGVEREKYEELFLKGIRDECGSEQEFKILLGDCEAVERIKRV | not soluble |
| MIVGMSVSLLRGRTVRRVLSVLVVAGLLGAGVTGCSNDAGAKTENTVDASPTPTNTPTDGDGDSAEEPAQDTPAEPEQRPVPEEPEAMKTGDKAGAIAAATFFVEVIEYSLHSNNPELLEKYSYENCTNCNNLIETIAYRSKNGYESLETSYVINSVGTPSYVGTNHIIWGVPMSITSKEQLNRKESEQIETNKLTIYVTYENGEWDLTSIDPDGGQSTK | not soluble |
| HHHHHHSSGLVPRGSHMGGTGSGMTPGEAWKKQLNKLGKTQFEQYKRSCILEVDRTHARDSLENGIQNGIAVSRGSAKLRWMEERGYVKPTGIVVDLGCGRGGWSYYAASLKNVKKVMAFTLGVQGHEKPIMRTTLGWNLIRFKDKTDVFNMEVIPGDTLLCDIGESSPSIAVEEQRTLRVLNCAKQWLQEGNYTEFCIKVLCPYTPLIMEELSRLQLKHGGGLVRVPLSRNSTHEMYWVSGTRTDVVGTVSNVSRLLTRRMLNKPQPPTLEDDVILDMGTR | soluble |
| ERVVINISGLRFETQLKTLAQFPETLLGDPKKRMRYFDPLRNEYFFDRNRPSFDAILYYYQSGGRLRRPVNVPLDIFSEEIRFYELGEEAMEMFREDEG | soluble |
| MIDELATKANVALKAMEDFTQEQVDHIVHQMAMAALDQHMPLAKMAVEETGRGIYEDKAIKNMYASEYIWNNIKHDKTVGVINKDEQTGLMEIAEPVGVVCGVTPTTNPTSTTIFKSLIALKTRNPIVFAFHPSAQKCSAEAARIVRDAAIAAGAPENCIQWIEQPSIDATSALMNHPGIAIVLATGGAGMVKSAYSTGKPALGVGPGNVPAYIEKTAKVKRAVNDLIVSKSFDNGMICASE | not soluble |
| MADDLGDEWWTQGDNSDVPEVEEETEHAEEKQPIKSTPKKRKVEKQIPDATKKKKATVKKECFITQERSEEKPDNESNKNKKRRKKKKTITDVLTSSKPVPGSPVDLVSLLKTYHSQTRSVIEQEELTLQDSCFLSCNDLTHSLSSYLKEVCPKWAKMQKQHTQTSSVVLLIVCGSALRTIDLIKQLVTFKGQAKVLKLFAKHIKVEEQIKSLSKGVTHIAVGTPGRICALLEKEGLTVQGLRYLVLDWNYRDQKQRRMVDVPEVKGDLLKMMDQGLIQSCREGTVKIGLF | not soluble |
| MAHHHHHHMAVESRSRVTSKLVKAHRAMLNSVTQEDLKVDRLPGADYPNPSKKYSSRTEFRDKTDYIMYNPRPRDEPSSENPVSVSPLLCELAAARSRIHFNPTETTIGIVTCGGICPGLNDVIRSITLTGINVYNVKRVIGFRFGYWGLSKKGSQTAIELHRGRVTNIHHYGGTILGSSRGPQDPKEMVDTLERLGVNILFTVGGDGTQRGALVISQEAKRRGVDISVFGVPKTIDNDLSFSHRTFGFQTAVEKAVQAIRAAYAEAVSANYGVGVVKLMGRDSGFIAAQAAVASAQANICLVPENPISEQEVMSLLERRFCHSRSCVIIVAEGFGQDWGRGSGGYDASGNKKLIDIGVILTEKVKAFLKANKSRYPDSTVKYIDPSYMIRACPPSANDALFCATLATLAVHEAMAGATGCIIAMRHNNYILVPIKVATSVRRVLDLRGQLWRQVREITVDLGSDVRLARKLEIRRELEAINRNRDRLHEELAKL | not soluble |
| MSLAITTSPPTVSDTKRIFYANYKKLLLPLYNTPIQNMLVKQHIHRYNKNYTYSDVSALGIVTTLDSVLNTFPDDEKTSIKNAFIISLNEDPEMYYSNIESLKPYAKSSHLGPNKHGNTLQKSLYDIAINDKYVYSSFAAVGIFKLLQMNGNYTGNSVKHLSESIGFKGELVHKDIATFFSLLKYIESSQKLADDIREESLKREGHHHHHH | soluble |
| MSVVAAVDCGTNSIRLLISEQTPTGLREITRQMTIIRLGEGVDATGKIDPVAIERARVALSGYVDTMLAHKVTAVRMVATSATRDASNKDDFFAMTADLLGAVVPGACAEVISGAEEAELSFIGAVADIPDTDRPVCVIDLGGGSTEFVVGKKTGEILGAYSTQMGCVRLTERLMVSDPPTAEEIAQAREYVDTQLTVALDNVPIMQASMVVGCAGTFTTVAALALGLDSYDPQRIHGSVHTADRLREETQRLIGETSQQRAAHSVMHLGRADVIAGGSVVIEQILAMMQRLGVSDSVTISEKDILDGIVARLLEELEHHHHHH | soluble |
| MGKTYNVTRIIKLEVRDRIIPPTMKLPEGVVTSIGSNLTITCRVSLRLPTTDADVFWISNGMYYEEEDEDGDGRISVANKIYMTDKRRVITSWLNINPVKEEDATTFTCMAFTIPSISKTVTVSIT | not soluble |
| FLDDINEDALPNDRTGYQDTLIWNKLFNYQKDAATGIINKLESYNGCILADSVGLGKTFTALAVIKYYELRNKSVLVLCPKKLADNWLNYSRNLKTNIFARDRFNYDVLCHTDLSRTSGESFGTPLNRINWGNYDLVIIDESHNFRNNDAYKDKETRYQKLMNKVIKEGVKTKVLMLSATPVNNRFNDLRNQLALAYEGDS | not soluble |
| MGHHHHHHSHMLPPPQPGAAGGSGQPRKCSSRRNAWGNLSYADLITRAIESSPDKRLTLSQIYEWMVRCVPYFKDKGDSNSSAGWKNSIRHNLSLHSRFMRVQNEGTGKSSWWIINPDGGKSGKAPRRRAVSMDNSNKYTKSRGRAAKKKA | soluble |
| MAKQSGGKPQIDEDFMKEIISQGLPVKKQETPLVTVETPDKPETVNKEEIKAEPKEEKAVKEPARRKKNTPGDYRETYFMRVDLTDRQPLYVSRTTHEKLMKIVTVIGGRKATVSSYVENILLRHFDQFQDEINELYESKFEKPF | soluble |
| MGNTDKLMNQIFELKFTSKSLQRQARKCEKEERSEKLKVKKAIEKGNMDGARIYAENAIRKRSEQMNYLRLSSRLDAVVARLDTQAKMATITKSMTNIVKSLESSLTTGNLQKMSETMDSFEKQFVNMEVQAEFMDNAMAGSTSLSTPEGEVNSLMQQVADDYGLEVSVGLPQPAGHAIPTKTEEKVEEDDLTRRLAELKARG | not soluble |
| MREYRITAEEGHPRIDVFLAGRPEIGLSRSRIQALIDEGQVTLNGAMPKARQAVNPGDVIVVRVPDPEPMELVPEDIPLDIVYEDEDILVVNKQRGLVVHPAAGHWTGTLVHALLDKVDDLEGIGGELRPGIVHRLDKDTTGLLVVAKSERAMASLQEQIRDHMVQRVYWALVHGNSMPDTGRIEAPIGRHPRDRKRMAVNPKTGRDAVTYFRVLERYRGYALLECRLETGRTHQIRVHLSFIGHPVVGDPLYGPRKPHLGMPPQALHARQLSFRHPASGEWMEFTVDPPADMMAVVQRLREEA | soluble |
| MGSDKIHHHHHHMSHISTADIEQVILPSSRDLGGFSVRRALPAPMRQMVGPFIFLDSFGPVRFGEGEGIDTRPHPHIGLSTLTYLLEGELTHRDSERYVQAIRPGEVNVMVAGAGIVHSERTPEHQRATGGKLAGLQSWIALPKKSEETAPLFQHLDAGSLPTVSGEGIGMKLLAGNLHGRQSPATVFSDLFAAEVHLEAGARYRIDGEHVERAIFVVAGALEIVGQDGNFGQDRLLVFKPGSEIVVKATGPARFLAFGGEPLPEKRFIRWNFVATDQERIRHAADLWRERGFPGVPDDDEFIPLPENFR | not soluble |
